The test has as its target T1, CD59 (Homo sapiens, UniProt P13987).
T1 construct: human erythrocyte membrane glycoprotein CD59 were purified; from tissue; host or cells: human erythrocyte membranes (CD59); synthetic peptide custom ordered from Quality Controlled Biochemicals
T1 sequence (P13987 26-102): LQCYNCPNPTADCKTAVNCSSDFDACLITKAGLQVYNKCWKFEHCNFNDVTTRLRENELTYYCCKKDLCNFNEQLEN
As to the kind of experiment: CD59 binding to hu C9 peptide 359–384, microtiter plate assay with biotin-CD59. Particulars: microplate; corrected for nonspecific binding with 20-fold excess unlabeled CD59. On the procedure:
Biotin-CD59—CD59 was biotinylated by incubation (1 h, room temperature) with a 20-fold molar excess of NHS-LC-biotin in 10 mM MOPS, 0.1% Nonidet P-40, pH 9.0 followed by exhaustive dialysis against charcoal, as described by Chang, et al. J. Biol. Chem. 269, 26424–26430 (1994).
CD59 binding to hu C9 peptide 359–384—The specific binding of CD59 to hu C9-derived peptide 359–384 was measured by microtiter plate assay with biotin-CD59, according to modification of published methods of Chang, et al. (1994) and Husler, et al. (1995). Briefly, the BSA-peptide conjugate was adsorbed to 96 well polyvinyl microplates by overnight coating at 5 μg/ml in 0.1 M sodium bicarbonate, pH 8.5. After blocking with 1% (w/v) BSA, wells were washed and incubated (4 hrs., 37° C.) with between 0.5 and 1 μg/ml biotin-CD59. After washing, the bound biotin-CD59 was detected with Vectastain (Vector Labs, Burlingame, Calif.), developed by addition of p-nitrophenyl phosphate (2 mg/ml) and optical density recorded at 405 nm (VMaxMicroplate Reader, Molecular Devices, Inc.). In all experiments, correction was made for background adsorption of biotin-CD59 to BSA-coated wells (no peptide) and for nonspecific binding of biotin-CD59 to peptide, determined in the presence of a 20-fold excess of unlabeled CD59. […]

Non-standard residues stand in square brackets, D forms with d. No end group written: not given here. allyl‑C = allyl-modified terminal Cys; allyl‑K = allyl-modified terminal Lys

Consider “[allyl-K]-CLGYHLDVSLAFSEISVGAEFNKDD-[allyl-C] ([allyl‑K]CLGYHLDVSLAFSEISVGAEFNKDD[allyl‑C]; not fully specified; printed as [allyl-K]-CLGYHLDVSLAFSEISVGAEFNKDD-[allyl-C]) [C9 peptide 359–384]”, for which the “specific binding of biotin-CD59 to the BSA-coupled peptide” value is “specifically bound”.

For the origin of these results see patent publication US7166568B1, “Compositions and methods to inhibit formation of the C5b-9 complex of complement” (Oklahoma Medical Research Foundation, priority 1998, dated 2007).
